Positions count from the first letter of the chain named. Numbers in names are those of the source. Where “and” joins values, the source holds several entries; their conditions need not be identical. Identical values can stand only once.
T1: Hexim1-A3m (human) (UniProt O94992)
T1 sequence: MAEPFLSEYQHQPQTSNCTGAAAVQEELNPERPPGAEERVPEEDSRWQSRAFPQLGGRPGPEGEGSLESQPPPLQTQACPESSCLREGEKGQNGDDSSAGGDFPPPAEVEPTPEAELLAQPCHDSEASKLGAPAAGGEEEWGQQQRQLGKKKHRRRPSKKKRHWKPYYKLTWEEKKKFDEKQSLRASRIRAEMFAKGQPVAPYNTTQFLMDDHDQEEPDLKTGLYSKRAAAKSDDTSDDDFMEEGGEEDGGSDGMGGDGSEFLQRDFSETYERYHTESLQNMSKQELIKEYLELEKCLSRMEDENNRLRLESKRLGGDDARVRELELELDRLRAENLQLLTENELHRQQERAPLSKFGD

T2: Hexim1-A12m (human) (UniProt O94992)
T2 sequence: T1 sequence

T3: Hexim1 BRARM1 (human, UniProt O94992 141-159)
T3 chain: WGQQQRQLGKKKHRRRPSK

B1: Full-length human Hexim1 protein (aa 1-359) (natural protein)
chain: GMAEPFLSEYQHQPQTSNCTGAAAVQEELNPERPPGAEERVPEEDSRWQSRAFPQLGGRPGPEGEGSLESQPPPLQTQACPESSCLREGEKGQNGDDSSAGGDFPPPAEVEPTPEAELLAQPCHDSEASKLGAPAAGGEEEWGQQQRQLGKKKHRRRPSKKKRHWKPYYKLTWEEKKKFDEKQSLRASRIRAEMFAKGQPVAPYNTTQFLMDDHDQEEPDLKTGLYSKRAAAKSDDTSDDDFMEEGGEEDGGSDGMGGDGSEFLQRDFSETYERYHTESLQNMSKQELIKEYLELEKCLSRMEDENNRLRLESKRLGGDDARVRELELELDRLRAENLQLLTENELHRQQERAPLSKFGD
notes: non-native glycine that remains at the N-terminus after TEV protease cleavage; Hexim1, human, aa 1-359; also called Hexim1 dimer; full-length Hexim1; not shown: His6, N-terminal, cleaved; MBP, N-terminal, cleaved
B2: Hexim1 L-AR-CC dimeric protein (domain or fragment, human, UniProt O94992 171-359, looked up)
chain: TWEEKKKFDEKQSLRASRIRAEMFAKGQPVAPYNTTQFLMDDHDQEEPDLKTGLYSKRAAAKSDDTSDDDFMEEGGEEDGGSDGMGGDGSEFLQRDFSETYERYHTESLQNMSKQELIKEYLELEKCLSRMEDENNRLRLESKRLGGDDARVRELELELDRLRAENLQLLTENELHRQQERAPLSKFGD
notes: Hexim1, human; linker (L), Acidic Region (AR) and coiled-coil domain (CC, 254-359); source: E. coli BL21-GOLD(DE3), purified
B3: Monomeric Hexim1 BR-L-AR (aa 142-253) (domain or fragment, human)
chain: GGQQQRQLGKKKHRRRPSKKKRHWKPYYKLTWEEKKKFDEKQSLRASRIRAEMFAKGQPVAPYNTTQFLMDDHDQEEPDLKTGLYSKRAAAKSDDTSDDDFMEEGGEEDGGSD
notes: non-native glycine that remains at the N-terminus after TEV protease cleavage; Hexim1, human, residues 142-253: Basic Region, linker with PYNT motif, Acidic Region; 15N-labelled as the reporter in the PRE NMR experiments; unlabelled in NativePAGE and mass photometry; also called Hexim1 central region construct; not shown: His6, N-terminal, cleaved; MBP, N-terminal, cleaved
B4: Hexim1 BR-L-AR(A201C^MTSL) (domain or fragment, human)
chain: B3 chain with A61C
modifications: MTSL nitroxide spin label on C201
notes: non-native glycine that remains at the N-terminus of BR-L-AR after TEV protease cleavage; Hexim1, human, residues 142-253 (BR-L-AR) with A201C; 15N-labelled; not shown: His6, N-terminal, cleaved; MBP, N-terminal, cleaved
B5: Hexim1 BR-L-AR(S183C^MTSL) (domain or fragment, human)
chain: B3 chain with S43C
modifications: MTSL nitroxide spin label on C183
notes: non-native glycine that remains at the N-terminus of BR-L-AR after TEV protease cleavage; Hexim1, human, residues 142-253 (BR-L-AR) with S183C; 15N-labelled; not shown: His6, N-terminal, cleaved; MBP, N-terminal, cleaved
B6: Hexim1 BR-L-AR(S237C^MTSL) (domain or fragment, human)
chain: B3 chain with S97C
modifications: MTSL nitroxide spin label on C237
notes: non-native glycine that remains at the N-terminus of BR-L-AR after TEV protease cleavage; Hexim1, human, residues 142-253 (BR-L-AR) with S237C; not shown: His6, N-terminal, cleaved; MBP, N-terminal, cleaved
B7: Hexim1 BR-L-AR(S226C^MTSL) (domain or fragment, human)
chain: B3 chain with S86C
modifications: MTSL nitroxide spin label on C226
notes: non-native glycine that remains at the N-terminus of BR-L-AR after TEV protease cleavage; Hexim1, human, residues 142-253 (BR-L-AR) with S226C; not shown: His6, N-terminal, cleaved; MBP, N-terminal, cleaved
B8: Hexim1 BR-L-AR(S233C^MTSL) (domain or fragment, human)
chain: B3 chain with S93C
modifications: MTSL nitroxide spin label on C233
notes: non-native glycine that remains at the N-terminus of BR-L-AR after TEV protease cleavage; Hexim1, human, residues 142-253 (BR-L-AR) with S233C; 14N in the inter-only experiment; not shown: His6, N-terminal, cleaved; MBP, N-terminal, cleaved

How the values were obtained:
Hexim1 full-length [1] = biological target: T4, Hexim1 full-length (human, UniProt O94992 1-359); assay: ITC; conditions: N=1.40; protein in syringe (inferred from N); ITC: 20 mM HEPES pH 7.5, 150 mM KCl, 1 mM TCEP, 295 K; NMR: 50 mM Na phosphate pH 6.2, 150 mM KCl, 0.02% NaN3, 5% D2O, 298 K; EMSA: binding buffer (20 mM HEPES …)
Hexim1-A3m (human) = biological target: T1, Hexim1-A3m (human); assay: ITC; conditions: N=0.34; ITC: 20 mM HEPES pH 7.5, 150 mM KCl, 1 mM TCEP, 295 K; NMR: 50 mM Na phosphate pH 6.2, 150 mM KCl, 0.02% NaN3, 5% D2O, 298 K; EMSA: binding buffer (20 mM HEPES …)
Hexim1-A12m (human) = biological target: T2, Hexim1-A12m (human); assay: ITC; conditions: ITC: 20 mM HEPES pH 7.5, 150 mM KCl, 1 mM TCEP, 295 K; NMR: 50 mM Na phosphate pH 6.2, 150 mM KCl, 0.02% NaN3, 5% D2O, 298 K; EMSA: binding buffer (20 mM HEPES …)
Hexim1 BRARM1 = biological target: T3, Hexim1 BRARM1; assay: NMR; Site2 shifted, not Site4; ITC: 20 mM HEPES pH 7.5, 150 mM KCl, 1 mM TCEP, 295 K; NMR: 50 mM Na phosphate pH 6.2, 150 mM KCl, 0.02% NaN3, 5% D2O, 298 K; EMSA: binding buffer (20 mM HEPES); conditions: protein: recombinant; tags: GB1-His6 removed by TEV; non-native N-terminal G; hairpin
Hexim1 BR-L-AR = Hexim1 BR-L-AR (human, UniProt O94992 142-253); assay: NMR; ITC: 20 mM HEPES pH 7.5, 150 mM KCl, 1 mM TCEP, 295 K; NMR: 50 mM Na phosphate pH 6.2, 150 mM KCl, 0.02% NaN3, 5% D2O, 298 K; EMSA: binding buffer (20 mM HEPES); conditions: protein: recombinant; tags: MBP-His6 removed by TEV; non-native N-terminal G; hairpin
[2] = biological target: the molecule itself; assay: mass photometry; Refeyn TwoMP; freshly purified proteins alone or mixed as complexes, drop-diluted into phosphate-buffered saline pH 7.4 to 40 nM final total protein
Hexim1 full-length [3] = biological target: T4, Hexim1 full-length; assay: ITC; N=0.47; ITC: 20 mM HEPES pH 7.5, 150 mM KCl, 1 mM TCEP, 295 K; NMR: 50 mM Na phosphate pH 6.2, 150 mM KCl, 0.02% NaN3, 5% D2O, 298 K; EMSA: binding buffer (20 mM HEPES); conditions: protein: recombinant; tags: MBP-His6 removed by TEV; non-native N-terminal G remains; chain copies: 2; hairpin
Hexim1 NBLA (N-BR-L-AR) = Hexim1 NBLA (N-BR-L-AR) (human, UniProt O94992 1-253); assay: ITC; N=0.81; ITC: 20 mM HEPES pH 7.5, 150 mM KCl, 1 mM TCEP, 295 K; NMR: 50 mM Na phosphate pH 6.2, 150 mM KCl, 0.02% NaN3, 5% D2O, 298 K; EMSA: binding buffer (20 mM HEPES); conditions: protein: recombinant; hairpin with U40U41 and U63 bulges
Hexim1 full-length [4] = biological target: T4, Hexim1 full-length; assay: ITC; N=0.76; ITC: 20 mM HEPES pH 7.5, 150 mM KCl, 1 mM TCEP, 295 K; NMR: 50 mM Na phosphate pH 6.2, 150 mM KCl, 0.02% NaN3, 5% D2O, 298 K; EMSA: binding buffer (20 mM HEPES); conditions: protein: recombinant; tags: MBP-His6 removed by TEV; non-native N-terminal G remains; chain copies: 2; hairpin with U40U41 and U63 bulges
[5] = biological target: the molecule itself; assay: paramagnetic relaxation enhancement (PRE) NMR; total interaction experiment: 15N-labelled and MTSL-tagged BR-L-AR alone, captures both intra- and inter-monomer contacts; 15N-1H HSQC, 290.15 K, 600 MHz; 50 mM sodium phosphate pH 6.2, 150 mM KCl
[6] = biological target: B3; assay: paramagnetic relaxation enhancement (PRE) NMR; inter-only experiment: 1:1 mixture of 15N-labelled untagged BR-L-AR (reporter) with 14N-labelled MTSL-tagged BR-L-AR (broadener); 15N-1H HSQC, 290.15 K, 600 MHz; 50 mM sodium phosphate pH 6.2, 150 mM KCl; conditions: both partners purified
Hexim1 full-length [7] = biological target: T4, Hexim1 full-length; assay: ITC; N=0.49; ITC: 20 mM HEPES pH 7.5, 150 mM KCl, 1 mM TCEP, 295 K; NMR: 50 mM Na phosphate pH 6.2, 150 mM KCl, 0.02% NaN3, 5% D2O, 298 K; EMSA: binding buffer (20 mM HEPES); conditions: protein: recombinant; tags: MBP-His6 removed by TEV; non-native N-terminal G remains; chain copies: 2; hairpin

7SK SL1-d(api)
Kd (Hexim1 full-length [1]): 96 nM

GGAUGUGAGGGCGAUCUGGCUUCGGCCUUCCUCCCUCACCGCUCCA [7SK SL1-p]
Kd (Hexim1-A3m (human)): 276 nM | binding signal (fold tighter than wild-type Hexim1) (Hexim1-A12m (human)): 6

GGCUGCGACAUCUGUCACCUUCGGGCUAGGCGGGUGUCCCC (structured_RNA) [7SK SL1-dIIm]
binding result (Hexim1 BRARM1): binds

GGCGAUCUGGCUGCGACAUCUGUCACCCCAUUGAUCGCC (structured_RNA) [7SK SL1alt (circular), loop version not stated]
binding result (Hexim1 BR-L-AR): binds

B1
stoichiometry N [2]: 2

GGCUGUCACCUUCGGGCUAGGCGGCC (structured_RNA) [7SK SL1-dII]
Kd (Hexim1 full-length [3]): 1220 ± 129 nM

B2
stoichiometry N [2]: 2

GGCCAUUGAUCGCCUUCGGGCUGAUCUGGCC (structured_RNA) [7SK SL1-dI]
Kd (Hexim1 NBLA (N-BR-L-AR)): 83 ± 28 nM | Kd (Hexim1 full-length [4]): 780 ± 25 nM

B3
stoichiometry N [2]: 3 and 4

B4
binding result [5]: binds

B5
binding result [5]: binds

B6
binding result [6]: binds

B7
binding result [5]: binds | binding result [6]: binds

B8
binding result [6]: binds

GGAUGUGAGGGCGAUCUGGCUUCGGCCUUCCUCCCUCACCGCUCCA (structured_RNA) [7SK SL1-p]
Kd (Hexim1 full-length [7]): 2210 ± 197 nM
